{"source": "patent US11407819B2", "about": "“Compositions and use of a fibrinogen binding motif present in EFB and COA for therapeutics and vaccines against Staphylococcus aureus” (priority 2013, dated 2022)", "molecular_target": "T1, rCoa-C binding to Fg (Homo sapiens, UniProt P02671+P02675+P02679)", "T1 construct": "full-length human Fibrinogen (diluted in PBS, Enzyme research); purchased Enzyme research; host or cells: Coa probe made in E. coli BL21", "T1 sequence (P02671 20-629 limits assumed)": "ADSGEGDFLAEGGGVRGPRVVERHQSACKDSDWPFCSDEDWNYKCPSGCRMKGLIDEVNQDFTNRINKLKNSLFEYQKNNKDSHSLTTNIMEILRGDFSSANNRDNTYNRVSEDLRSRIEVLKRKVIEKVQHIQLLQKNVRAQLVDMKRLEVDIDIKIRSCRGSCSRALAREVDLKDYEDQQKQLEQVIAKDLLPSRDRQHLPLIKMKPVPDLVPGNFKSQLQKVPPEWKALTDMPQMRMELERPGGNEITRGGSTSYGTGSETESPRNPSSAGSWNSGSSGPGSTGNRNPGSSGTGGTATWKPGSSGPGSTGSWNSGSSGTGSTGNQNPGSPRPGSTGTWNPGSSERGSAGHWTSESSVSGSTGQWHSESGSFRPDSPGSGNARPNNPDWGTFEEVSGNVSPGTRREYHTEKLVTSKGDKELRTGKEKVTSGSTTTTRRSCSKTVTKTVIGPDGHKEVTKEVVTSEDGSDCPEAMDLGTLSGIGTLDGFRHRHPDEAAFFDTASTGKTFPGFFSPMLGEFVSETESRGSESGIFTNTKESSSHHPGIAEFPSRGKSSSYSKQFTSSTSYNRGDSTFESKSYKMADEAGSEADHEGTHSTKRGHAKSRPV", "T1 sequence (P02675 31-491)": "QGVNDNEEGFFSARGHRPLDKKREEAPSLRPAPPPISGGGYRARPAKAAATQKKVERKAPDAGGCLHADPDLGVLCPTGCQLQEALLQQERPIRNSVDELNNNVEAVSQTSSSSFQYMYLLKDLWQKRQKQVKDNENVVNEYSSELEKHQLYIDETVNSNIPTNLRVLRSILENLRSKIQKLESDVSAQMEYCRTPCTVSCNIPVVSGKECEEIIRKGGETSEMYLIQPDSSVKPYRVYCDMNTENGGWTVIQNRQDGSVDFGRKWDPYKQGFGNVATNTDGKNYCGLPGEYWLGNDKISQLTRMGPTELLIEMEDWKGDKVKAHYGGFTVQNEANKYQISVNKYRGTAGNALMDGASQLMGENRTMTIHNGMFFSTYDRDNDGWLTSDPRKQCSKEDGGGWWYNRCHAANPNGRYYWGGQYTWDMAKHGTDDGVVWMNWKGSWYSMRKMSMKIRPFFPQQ", "T1 sequence (P02679 27-453)": "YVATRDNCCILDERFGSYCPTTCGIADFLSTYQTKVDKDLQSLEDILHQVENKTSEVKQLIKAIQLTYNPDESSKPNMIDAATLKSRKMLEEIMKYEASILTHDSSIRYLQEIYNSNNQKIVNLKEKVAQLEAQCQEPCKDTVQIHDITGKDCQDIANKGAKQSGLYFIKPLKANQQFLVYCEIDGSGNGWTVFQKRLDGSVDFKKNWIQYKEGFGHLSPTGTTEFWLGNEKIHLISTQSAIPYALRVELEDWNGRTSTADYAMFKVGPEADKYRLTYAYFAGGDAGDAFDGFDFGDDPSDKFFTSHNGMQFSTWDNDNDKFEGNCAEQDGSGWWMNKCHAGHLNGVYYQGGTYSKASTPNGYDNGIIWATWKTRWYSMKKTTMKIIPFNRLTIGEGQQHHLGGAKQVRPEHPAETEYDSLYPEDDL", "assay": "Competition ELISA, peptide inhibition of rCoa-C (Coa 311-636) binding to Fg", "details": "increasing concentrations of peptides; 4 nM GST fusion protein", "method": "The residues in Coa-RI important for fibrinogen binding. FIG. 12A is a panel of coa-RI variant peptides were synthesized where each residue in the sequence is individually replaced with Ala (or Ser when the native a.a. is Ala). […] Wells were coated with 0.25 μg/well Fg. Labels -1, -2, -3, -4, -5, -6, -7, -8, -9, -10, -11, -12, -13, -14, -15, -16, -17, -18, -19, -20, -21, -22, -23, -24, -25, -26, -27 refer to Coa-RI-1, Coa-RI-2, Coa-RI-3, Coa-RI-4, Coa-RI-5, Coa-RI-6, Coa-RI-7, Coa-RI-8, Coa-RI-9, Coa-RI-10, Coa-RI-11, Coa-RI-12, Coa-RI-13, Coa-RI-14, Coa-RI-15, Coa-RI-16, Coa-RI-17, Coa-RI-18, Coa-RI-19, Coa-RI-20, Coa-RI-21, Coa-RI-22, Coa-RI-23, Coa-RI-24, Coa-RI-25, Coa-RI-26, Coa-RI-27, respectively. FIG. 12C is a comparison of amino acid sequence of Efb-O with Coa-RI. FIG. 12D is a Fg-binding register of tandem repeats in Coa. Bold letters denote the residues that are important for Fg binding. Binding of a fixed concentration of rCoa-C (2 nM) to immobilized Fg was determined in the presence of a fixed concentration of these peptides (50 uM) (FIG. 12B). […]\nFIG. 13A is a schematic presentation of Coa peptides. […] The Fg binding activities of these peptides were then investigated in a competition ELISA where the binding of rCoa-C to Fg coated microtiter wells were determined in the presence of increasing concentrations of peptide (FIG. 13B). […]", "note": "“Also recorded” adds a separate entry of the source.", "data": [{"substance": "sCoa-RI: synthetic peptide, first 27 residues of repeat region, Coa 506-532 (ETNAYNVTTHANGQVSYGARPTYKKPS)", "values": [{"measurement": "inhibition of rCoa-C binding to fibrinogen by overlapping Coa R peptides", "value": "some inhibitory activity; also recorded: most potent inhibitor"}]}]}
